Biological target: T1, ERRα (in vitro translated) (Mus musculus, UniProt O08580 1-422)
T1 sequence: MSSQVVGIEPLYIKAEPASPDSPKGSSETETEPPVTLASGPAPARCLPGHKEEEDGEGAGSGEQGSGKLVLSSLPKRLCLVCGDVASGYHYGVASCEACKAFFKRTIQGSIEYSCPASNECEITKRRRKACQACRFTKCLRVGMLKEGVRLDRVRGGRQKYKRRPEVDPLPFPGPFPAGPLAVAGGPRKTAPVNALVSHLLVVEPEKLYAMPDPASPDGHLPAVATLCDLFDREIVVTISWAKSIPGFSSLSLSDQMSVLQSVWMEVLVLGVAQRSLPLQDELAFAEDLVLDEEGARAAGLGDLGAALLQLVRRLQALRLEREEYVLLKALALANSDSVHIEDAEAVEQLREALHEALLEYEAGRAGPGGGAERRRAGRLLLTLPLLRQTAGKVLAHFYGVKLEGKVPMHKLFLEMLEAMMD
Assay: EMSA; 2.5 mM MgCl2, poly(dI:dC); EMSA: 10 mM Tris pH 7.5, 50 mM NaCl, 2.5 mM MgCl2, 0.5 mM DTT, 4% glycerol, 2 µg poly(dI:dC), 1 pmol probe, 20 µl, room temperature 15 min; 5% polyacrylamide gel
Conditions: protein: ivt; label: 32P 5' end label (T4 PNK); strands as printed are 17 and 16 nt; S6 lacks one G relative to the exact complement of S5 (possible misprint)

B1: GS-ERRα (SCT promoter ERE-half site oligo) (dsDNA)
DNA 1: GCCCCTGACCTTCCCGG
DNA 2: CCGGGAAGGTCAGGGC
- binding result: binds

— article PMC3382582, “The Estrogen-Related Receptor Alpha Upregulates Secretin Expressions in Response to Hypertonicity and Angiotensin II Stimulation”
